The text below walks through data of patent publication US20250282885A1 (VST BIO, published 2025).

In assay [1] the target is T1, human Sdc2 (human, UniProt P34741 19-144, limits assumed).
T1 construct: Antigen of the Octet tandem binning, loaded on biosensors at 100 nM; also called huSdc2; hSdc2
Nature of the assay: Octet BLI, HIS1K sensor loaded with huSdc2, antibody as sample; Full R2 0.9668. The method, then: In order to characterize the binding affinity and in vivo/in vitro functional ability of the twelve clones generated by the previous studies and disclosed in Table 1, a series of assays were performed on each clone. These assays measured the affinity of each antibody clone for human, pig, and mouse Sdc2 using an Octet® binding assay system. Additionally, the functional ability of each clone to inhibit VEGFA-driven permeability (see Santiago, et al. (2021) J Am Heart Assoc. 10(18):e020521) was assessed in two therapeutic settings: a “prevention” study in which three concentrations of antibody (5 μg/ml, 10 μg/ml, 15 μg/ml, 20 μg/ml, and/or 40 μg/ml depending on the study) were pre-incubated for an hour before administration of 100 ng/ml of VEGFA, and a “treatment” study in which 3 hours of pre-treatment with 100 ng/ml VEGFA were followed by treatment with antibody at 20 μg/ml or 40 μg/ml. Results are shown for 8-G17 in FIG. 8 and FIG. 9, 20-H19-AB in FIG. 10 and FIG. 11 (FIG. 12 for monkey ECs), R3-P3-C11 in FIG. 13 and FIG. 14, R4M-P3-E06 in FIG. 15 and FIG. 16, R3-P3-E09 in FIG. 17 and FIG. 18, R3-P1-C02 in FIG. 19 and FIG. 20, R3-P3-A12 in FIG. 21 and FIG. 22, R4M-P3-A12 in FIG. 23 and FIG. 24, and R4M-P1-A10 in FIG. 25 and FIG. 26.
(BLI is a label-free optical method that tracks binding on a fibre tip over time.)

A further assay addresses T2, mouse Sdc2 (mouse, UniProt P43407 19-145, limits assumed).
T2 construct: Immobilised on Maxisorp plates for panning and ELISA; also called mSdc2; moSdc2
The experiment in a line: Octet BLI, HIS1K sensor loaded with moSdc2, antibody as sample; Full R2 0.9584.

For assay [2], the target named is T1, human Sdc2. The experiment in a line: Octet tandem binning; saturating Ab f10 19838-10-I12-A.
For assay [3], the target named is T1, human Sdc2. Nature of the assay: Octet tandem binning; saturating Ab f5 19844-R4M-P3-E06.
Assay [4] concerns the target T1, human Sdc2. The experiment in a line: Octet tandem binning; saturating Ab f11 19838-20-H19-A.
The target in the next assay is T3, pig Sdc2 (pig, UniProt F1S0L5 19-145).
T3 construct: also called pSdc2
The experiment in a line: Octet BLI, HIS1K sensor loaded with pigSdc2, antibody as sample; Full R2 0.9799.

Assay [5] concerns the target T1, human Sdc2. The experiment in a line: Octet tandem binning; saturating Ab m3 19844-R3-P1-C02 (row boxed, self-self >0.09).
The target in assay [6] is human Sdc2 on Human Umbilical Vein Endothelial Cells (HUVEC) (human, UniProt P34741 19-201). Nature of the assay: cell-based or functional assay.
Sequence of human Sdc2 on Human Umbilical Vein Endothelial Cells (HUVEC) (P34741 19-201 limits assumed): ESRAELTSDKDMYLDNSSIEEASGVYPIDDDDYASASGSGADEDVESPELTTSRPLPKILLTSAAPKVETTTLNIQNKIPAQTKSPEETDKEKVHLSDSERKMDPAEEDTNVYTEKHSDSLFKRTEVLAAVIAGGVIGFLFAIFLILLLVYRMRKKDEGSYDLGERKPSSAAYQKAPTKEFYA

T1 sequence (P34741 19-144 limits assumed): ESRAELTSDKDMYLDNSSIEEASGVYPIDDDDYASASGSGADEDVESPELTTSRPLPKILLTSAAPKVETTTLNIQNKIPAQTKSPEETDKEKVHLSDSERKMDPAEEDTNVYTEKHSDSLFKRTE
T2 sequence (P43407 19-145 limits assumed): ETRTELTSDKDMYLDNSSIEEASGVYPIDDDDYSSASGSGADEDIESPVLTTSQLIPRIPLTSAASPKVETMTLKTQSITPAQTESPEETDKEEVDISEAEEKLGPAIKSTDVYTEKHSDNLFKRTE

B1: R4M-P3-A12 (antibody, human IgG1, kappa, V domains shown)
VH: EVQLVESGGGVVQPGGSLRLSCAASGFTFSDHYMSWIRQAPGKGLEWVSYLSGSGTSIYYADSVKGRFTISRDNAKKSLYLQMNSLRAEDTAVYYCARVGPAAGNAFDIWGQGTMVTVSS
VL: QSVLTQPPSASGTPGQRVTISCSGSSSNIGSNYVYWYQQLPGTAPKLLIYRNNQRPSGVPDRFSGSKSGTSASLAITGLQAEDEADYYCQSYDSSLSGVVFGGGTKLTVLR
For orientation: Kd means the free concentration of one partner at which half of the binding sites on the other are occupied at equilibrium, for simple one-to-one binding. Low values mean tighter binding, high ones weaker binding. The term koff denotes a measure of how fast the partners let go of each other. As usually defined, the kon is a measure of how fast the partners come together. Regarding B1, the Kd came out at 14.4 nM with human Sdc2 [1], 11.6 nM with mouse Sdc2 and 15 nM with pig Sdc2. Also, the koff amounted to 0.067 s⁻¹ in the assay with human Sdc2 [1], 0.00914 s⁻¹ in the assay with mouse Sdc2 and 0.0419 s⁻¹ in the assay with pig Sdc2. Besides, the kon with human Sdc2 [1] came to 4.65e+06 M⁻¹ s⁻¹; with mouse Sdc2 it was 3.74e+06 M⁻¹ s⁻¹; with pig Sdc2, 2.8e+06 M⁻¹ s⁻¹. Further, the “raw competing-Ab binding signal” value amounted to 0.152 in the assay with human Sdc2 [2], 0.0642 in the assay with human Sdc2 [3], 0.165 with human Sdc2 [4] and 0.0422 with human Sdc2 [5]. The “% Inhibition of VEGFA-induced permeability at 24hrs (20ug/ml)” value in assay [6] came out at 60%.
